As usually defined, the IC50 is the midpoint of a concentration-inhibition curve.

Drawing on paper PMC9880023, this text covers IC50 for one molecule.

The test has as its target HA-NRX1βS4(−), expressed on COS-7 cells. In words: cell-based competitive binding assay (fluorescence microscopy); COS-7 cells expressing HA-NRX1βS4(−); biotin-AβOs fixed at 100 nM monomer equivalent, SorCS1-Fc varied 0–1,500 nM; 1 h at 4°C.

B1: SorCS1 ectodomain tagged with human immunoglobulin Fc region (SorCS1-Fc) (Fc fusion)
chain: SLSCCPPQHPSSTPRRTLTPRGFPHPGPLGRAPATPPPLFMRPLFAVAPGDRALFLERAGGSRVSVATAARSGRRRRSGTEPEKIEPGEGASRSRRDMLKDGGQQGLGTGARDPGKATRFRMEELRLTSTTFALTGDSAHNQAMVHWSGHNSSVILILTKLYDYNLGSITESSLWRSTDYGTTYEKLNDKVGLKTILSYLYVCPTNKCKIMLLTDPEIESSLLISSDEGATYQKYRLNFYLQSLLFHPKQEDWILAYSQDQKLYSSAEFGRRWQLIQESVVPNRFYWSVMGSSKEPDLVHLEARTVDGHSIYLTCRMQNCTEANRNKPFPGYIDPDSLIVQDDYVFVQLTSGGRPHYYVSYRRSPFAQMKLPKYALPKDMHVISTDENQVFAAVQEWNQNDTYNLYISDTRGVYFTLALENVRSSRGPEGNVMIDLYEVAGIKGMFLANKKIDNQVKTFITYNKGRDWRLLQAPDADLRGDPVHCLLPYCSLHLHLKVSENPYTSGIIASRDTAPSIIVASGNIGSELSDSDISMFVSSDAGNTWRQIFEEEHSILYLDQGGVLVAMKHTSLPIRHLWLSFDEGRSWSKYSFTSIPLFVDGVLGEPGEETLIMTVFGHFSHRSEWQLVKVDYKSIFDRRCAEEDYRPWQLHSQGEACIMGAKRIYKKRKSERKCMQKYAGAMESEPCVCTEADFDCDYGYERHSNGQCLPAFWFNPSSLSKDCSLGQSYLNSAGYRKVVSNNCTDGVREQYTAKPQKCPGKAPRGLRIVTADGKLTAEQGHNVTLMVQLEEGDVQRTLIQVDFGDGIAVSYVNLSSMEDGIKHVYQNVGIFRVTVQVDNSLGSDSAVLYLHVTCPLEHVHLSLPFVTTKNKEVNATAVLWPSQVGTLTYVWWYGNNTEPLITLEGSISFKFTSEGMNTITVQVSAGNAILQDTKTIAVYEEFRSLRLAFSPNLDDYNPDIPEWRRDISRVIKKSLVEATGIPSQHILVAVLPGLPTAAELFVLPYQDGTRENKRSPEDLEQISEVLIHKLNQNLVHFELKPGVQVLVHAAHLTAAPLVDLTPTHS
Consider B1, for which the half-maximal inhibitory concentration (IC50) was 92.8 nM.
